Laboratory results published in paper PMC11653366 (2024).

T1: F*-PLLP
T1 chain: LASRPLPLLP

B1: F*-p40 (peptide)
chain: APTYSPPPPP

How the values were obtained:
Experiment in all cases: fluorescence anisotropy
Src SH3 84-145 = Src SH3 84-145 (Homo sapiens, UniProt P12931)
F*-PLLP = target: T1, F*-PLLP
F*-p40 = target: B1

Kd (Src SH3 84-145) [µM]	Kd (F*-PLLP) [µM]	Kd (F*-p40) [µM]	Binder
> 1000			B1
	> 1000	210	AblSrc SH3 SH3 (protein) PSENDPNLFVALYDFESRTETTLSITKGEKLRVLGYNTEGDWCEAQTKNGQGWVPSNYITPVNSLEK
	140	130	SrcAbl SH3 84-145 (protein) not shown
